The values below come from US20250011363A1, “OPTIMIZED SHORTENED PEPTIDE THAT BINDS TO ACETYLCHOLINE RECEPTOR, AND USE THEREOF” (SKINMED CO., LTD., priority 2021, published 2025).

The target of this test is acetylcholine receptor (Homo sapiens, UniProt P02708). Kind of test: SPR binding affinity (RU) of optimized 5mer/6mer/7mer peptides, Examples 6-7. Particulars: SPR, peptides tested at 10 μM. The procedure, abridged:
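600 peptides per series (5mer, 6mer-1, 6mer-2), made from high- or low-frequency amino acid combinations, are screened by SPR at 10 μM; binding is recorded in RU.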
(In SPR one partner is held on a chip, and binding of the other changes the refractive index at the surface.)

The mark [1] stands for this setting: 6mer-1 Top sequence (top combinations).

acetylcholine receptor, sequence (P02708 21-457): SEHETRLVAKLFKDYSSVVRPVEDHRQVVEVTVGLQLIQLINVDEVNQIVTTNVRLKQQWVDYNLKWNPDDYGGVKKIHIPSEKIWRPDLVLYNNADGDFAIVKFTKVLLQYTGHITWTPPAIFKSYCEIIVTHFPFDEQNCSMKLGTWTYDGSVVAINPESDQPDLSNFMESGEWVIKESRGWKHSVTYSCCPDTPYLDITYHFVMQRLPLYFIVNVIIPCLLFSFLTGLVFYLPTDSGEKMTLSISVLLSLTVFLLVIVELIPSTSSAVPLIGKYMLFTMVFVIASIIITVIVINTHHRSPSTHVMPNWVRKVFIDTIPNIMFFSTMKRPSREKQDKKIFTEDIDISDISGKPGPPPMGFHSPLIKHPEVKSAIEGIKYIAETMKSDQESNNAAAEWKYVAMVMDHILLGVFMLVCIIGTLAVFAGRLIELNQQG

As for 5mer-1174 (KYSGK), the Binding affinity (5mer Bottom sequence) came to 25 Ru.
As to 5mer-1175 (RDMIR), the Binding affinity (5mer Bottom sequence) stood at 30 Ru.
Same read-out and setting: for 5mer-1176 (KIHFK) the value was 25 Ru; for 5mer-1177 (KIPVR), 20 Ru; for 5mer-1178 (RFDNR), 22 Ru.
On the same count and under the same terms, for 5mer-1179 (RMNVR) the value was 18 Ru; for 5mer-1180 (KETAK), 27 Ru; for 5mer-1181 (KKAKR), 22 Ru.
Consider 5mer-1182 (REKWK), for which the Binding affinity (5mer Bottom sequence) is listed as 15 Ru.
Turning to 5mer-1183 (RHAPK), the Binding affinity (5mer Bottom sequence) is reported as 13 Ru.
The same measure, in the same setting: for 5mer-1184 (RDSMK) the value was 14 Ru.
Consider 5mer-1185 (KPTGR), for which, where the note is “5mer Bottom sequence”, the Binding affinity was determined as 30 Ru.
For 5mer-1186 (KMWVK), for the setting “5mer Bottom sequence”, the Binding affinity is on record as 12 Ru.
Regarding 5mer-1187 (KHHIR), the Binding affinity (5mer Bottom sequence) was 27 Ru.
Same read-out and setting: for 5mer-1188 (KPSGK) the value was 30 Ru; for 5mer-1189 (RKMDK), 11 Ru; for 5mer-1190 (RFSEK), 32 Ru.
Same read-out and setting: for 5mer-1191 (RMDWK) the value was 30 Ru.
The same measure, in the same setting: for 5mer-1192 (RYAKK) the value was 28 Ru.
5mer-1193 (KHWFK): for the setting “5mer Bottom sequence”, the Binding affinity came to 22 Ru.
For 5mer-1194 (RDNGK), under “5mer Bottom sequence”, the Binding affinity is 18 Ru.
Regarding 5mer-1195 (RHWEK), the Binding affinity (5mer Bottom sequence) was 19 Ru.
With 5mer-1196 (RICIR), the Binding affinity (5mer Bottom sequence) is listed as 24 Ru.
In the case of 5mer-1197 (KDDAR), the Binding affinity (5mer Bottom sequence) worked out at 24 Ru.
For 5mer-1198 (RAADK), the Binding affinity (5mer Bottom sequence) stood at 25 Ru.
As to 5mer-1199 (KNNNR), where the note is “5mer Bottom sequence”, the Binding affinity is 29 Ru.
With 5mer-1200 (RKNEK), the Binding affinity (5mer Bottom sequence) came out at 16 Ru.
With 6mer-1-1 (KKVISK), the Binding affinity under setting [1] is given as 122 Ru.
For 6mer-1-2 (RKQILR), under setting [1], the Binding affinity was 142 Ru.
With 6mer-1-3 (RKRRSR), the Binding affinity under setting [1] was 154 Ru.
On to 6mer-1-4 (RKSFYK), for which the Binding affinity under setting [1] was 139 Ru.
For 6mer-1-5 (KRQIRK), the Binding affinity under setting [1] is recorded as 135 Ru.
With 6mer-1-6 (RKSRCK), the Binding affinity under setting [1] was 153 Ru.
As to 6mer-1-7 (KRQYSK), the Binding affinity under setting [1] is 126 Ru.
With 6mer-1-8 (RKRRRK), under setting [1], the Binding affinity is recorded as 125 Ru.
In the case of 6mer-1-9 (RKSFCK), the Binding affinity under setting [1] amounted to 154 Ru.
On the same count and under the same terms, for 6mer-1-10 (KRWRLK) the value was 139 Ru; for 6mer-1-11 (KRQFTK), 139 Ru; for 6mer-1-12 (KKQICK), 128 Ru.
In the case of 6mer-1-13 (KRQIQR), the Binding affinity under setting [1] is on record as 147 Ru.
As to 6mer-1-14 (RKRFLK), under setting [1], the Binding affinity is reported as 145 Ru.
As to 6mer-1-15 (KRQICK), under setting [1], the Binding affinity was 123 Ru.
Turning to 6mer-1-16 (KKQYCR), under setting [1], the Binding affinity is recorded as 136 Ru.
Regarding 6mer-1-17 (KRVQCR), the Binding affinity under setting [1] amounted to 135 Ru.
6mer-1-18 (KKQFTR): the Binding affinity under setting [1] came to 145 Ru.
As to 6mer-1-19 (KRSFYR), the Binding affinity under setting [1] worked out at 135 Ru.
As to 6mer-1-20 (KKSRYK), the Binding affinity under setting [1] is listed as 147 Ru.
On the same count and under the same terms, for 6mer-1-21 (RKWYLK) the value was 137 Ru; for 6mer-1-22 (RKRLCK), 126 Ru.
6mer-1-23 (KRSVSR): the Binding affinity under setting [1] is reported as 153 Ru.
On to 6mer-1-24 (RKVIRK), for which the Binding affinity under setting [1] is 142 Ru.
For 6mer-1-25 (KKLIRR), the Binding affinity under setting [1] is 135 Ru.
Consider 6mer-1-26 (KKRVLR), for which, under setting [1], the Binding affinity is recorded as 123 Ru.
For 6mer-1-27 (KRSFTK), the Binding affinity under setting [1] was 142 Ru.
As for 6mer-1-28 (RRWISK), under setting [1], the Binding affinity is reported as 125 Ru.
Consider 6mer-1-29 (KRLISR), for which the Binding affinity under setting [1] stood at 124 Ru.
